Results published in patent US20070269427A1 (GlaxoSmithKline, published 2007).

B1: Humanised anti-MAG antibody BVh1/CVl1 (antibody, V domains shown)
VH: QVQLVQSGSELKKPGASVKVSCKASGYTFTNYGMNWVRQAPGQGLEWMGWINTYTGEPTYADDFTGRFVFSLDTSVSTAYLQISSLKAEDTAVYYCARNPINYYGINYEGYVMDYWGQGTLVTVSS
VL: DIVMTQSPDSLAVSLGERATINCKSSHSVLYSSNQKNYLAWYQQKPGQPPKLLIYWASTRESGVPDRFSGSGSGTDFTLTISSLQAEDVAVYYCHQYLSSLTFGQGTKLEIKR
notes: also called BVh1/CVI1
B2: Humanised anti-MAG antibody BVh3/CVl3 (antibody, IgG1, V domains shown)
VH: QVQLVQSGSELKKPGASVKVSCKASGYTFTNYGMNWVRQAPGQGLEWMGWINTYTGEPTYADDFTGRFVFSLDTSVSTAYLQISSLKAEDTATYFCARNPINYYGINYEGYVMDYWGQGTLVTVSS
VL: DIVMTQSPDSLAVSLGERATINCKSSHSVLYSSNQKNYLAWYQQKPGQPPKLLIYWASTRESGVPDRFSGSGSGTDFTLTISSLHTEDVAVYYCHQYLSSLTFGQGTKLEIKR
notes: also called BVh3/CVI3

Key:
[1] = target: T1, rat MAG-Fc fusion protein (R&D systems; 538-MG) (rat; human, UniProt P07722 20-516); assay: direct binding ELISA on coated rat MAG-Fc (FIG. 6)
T1 construct: Bought reagent; not shown: human Fc
T1 sequence (looked up): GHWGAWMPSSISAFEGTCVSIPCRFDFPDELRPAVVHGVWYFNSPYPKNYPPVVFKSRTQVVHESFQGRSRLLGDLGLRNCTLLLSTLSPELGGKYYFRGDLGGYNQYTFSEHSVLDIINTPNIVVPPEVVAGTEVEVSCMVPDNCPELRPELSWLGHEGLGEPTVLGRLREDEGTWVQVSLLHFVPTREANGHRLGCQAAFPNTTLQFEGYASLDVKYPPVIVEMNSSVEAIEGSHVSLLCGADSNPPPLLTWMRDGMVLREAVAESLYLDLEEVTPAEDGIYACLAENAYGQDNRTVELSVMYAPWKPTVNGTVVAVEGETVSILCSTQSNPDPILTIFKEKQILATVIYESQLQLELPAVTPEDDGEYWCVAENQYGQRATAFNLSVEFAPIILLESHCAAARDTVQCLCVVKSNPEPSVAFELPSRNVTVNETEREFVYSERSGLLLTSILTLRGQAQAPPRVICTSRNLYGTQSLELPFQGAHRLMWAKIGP
Experimental: (§1) 96-well Nunc Maxisorp plates were coated overnight at 4° C. with rat MAG-Fc fusion protein (2.5 μg/ml; R&D Systems; Cat.No. 538-MG) in PBS. Plates were washed twice with PBS containing Tween20 (0.1% v/v; PBST) and blocked with PBS containing BSA (1% w/v) for 1 h at room temperature (RT). Purified humanised antibody was adjusted to a starting concentration of 5 μg/ml in blocking buffer and then serial diluted. Antibody samples were incubated 1 h at RT and plates then washed 3× with PBST. Secondary antibody (Goat anti-human light chain specific-peroxidase conjugate; Sigma A-7164) was added diluted 1/5000 in blocking buffer and incubated for 1 h at RT. Wells were washed three times as above and binding detected by adding substrate (OPD tablets dissolved according to instructions; Sigma P-9187). Colour development was monitored and the reaction stopped using 3M H₂SO₄. Colour development was read at 490 nm.

[2] = target: T1, rat MAG-Fc fusion protein (R&D systems; …); assay: direct binding ELISA on coated rat MAG-Fc, purified antibody
Experimental: as §1

Binder | binding result [1] | binding result [2]
B1 | binds | –
B2 | – | binds
